{"source": "paper PMC3052533", "about": "“Amino acid changes within the Bunyamwera virus nucleocapsid protein differentially affect the mRNA transcription and RNA replication activities of assembled ribonucleoprotein templates” (The Journal of General Virology, 2011)", "target": "the molecule itself", "assay": "SEC; Superdex S200 column, purified N proteins analysed immediately following purification; elution compared with molecular mass standards; monomer and tetramer peaks"}
{"protein": "Bunyamwera virus (BUNV) nucleocapsid (N) protein, wild type (natural protein, nucleocapsid (N) protein of Bunyamwera virus, expressed from plasmid pET-BUN-N (Rodgers et al., 2006); predicted monomer mass 28.8 kDa; also called BUNV N protein; WT) MIELEFHDVAANTSSTFDPEVAYANFKRVHTTGLSYDHIRIFYIKGREIKTSLAKRSEWEVTLNLGGWKITVYNTNFPGNRNNPVPDDGLTLHRLSGFLARYLLEKMLKVSEPEKLIIKSKIINPLAEKNGITWNDGEEVYLSFFPGSEMFLGTFRFYPLAIGIYKVQRKEMEPKYLEKTMRQRYMGLEAATWTVSKLTEVQSALTVVSSLGWKKTNVSAAARDFLAKFGINM", "values": [{"measurement": "stoichiometry N", "result": 4}]}
{"protein": "BUNV N protein R40A (natural protein, Bunyamwera virus, UniProt P16495 1-233, looked up, nucleocapsid (N) protein of Bunyamwera virus, from modified plasmid pET-BUN-N, single alanine substitution) MIELEFHDVAANTSSTFDPEVAYANFKRVHTTGLSYDHIAIFYIKGREIKTSLAKRSEWEVTLNLGGWKITVYNTNFPGNRNNPVPDDGLTLHRLSGFLARYLLEKMLKVSEPEKLIIKSKIINPLAEKNGITWNDGEEVYLSFFPGSEMFLGTFRFYPLAIGIYKVQRKEMEPKYLEKTMRQRYMGLEAATWTVSKLTEVQSALTVVSSLGWKKTNVSAAARDFLAKFGINM", "values": [{"measurement": "binding result", "result": "binds"}]}
{"protein": "BUNV N protein R101A (natural protein, Bunyamwera virus, UniProt P16495 1-233, looked up, nucleocapsid (N) protein of Bunyamwera virus, from modified plasmid pET-BUN-N, single alanine substitution) MIELEFHDVAANTSSTFDPEVAYANFKRVHTTGLSYDHIRIFYIKGREIKTSLAKRSEWEVTLNLGGWKITVYNTNFPGNRNNPVPDDGLTLHRLSGFLAAYLLEKMLKVSEPEKLIIKSKIINPLAEKNGITWNDGEEVYLSFFPGSEMFLGTFRFYPLAIGIYKVQRKEMEPKYLEKTMRQRYMGLEAATWTVSKLTEVQSALTVVSSLGWKKTNVSAAARDFLAKFGINM", "values": [{"measurement": "binding result", "result": "binds"}]}
{"protein": "BUNV N protein K55A (natural protein, Bunyamwera virus, UniProt P16495 1-233, looked up, nucleocapsid (N) protein of Bunyamwera virus, from modified plasmid pET-BUN-N, single alanine substitution) MIELEFHDVAANTSSTFDPEVAYANFKRVHTTGLSYDHIRIFYIKGREIKTSLAARSEWEVTLNLGGWKITVYNTNFPGNRNNPVPDDGLTLHRLSGFLARYLLEKMLKVSEPEKLIIKSKIINPLAEKNGITWNDGEEVYLSFFPGSEMFLGTFRFYPLAIGIYKVQRKEMEPKYLEKTMRQRYMGLEAATWTVSKLTEVQSALTVVSSLGWKKTNVSAAARDFLAKFGINM", "values": [{"measurement": "binding result", "result": "binds"}]}
{"protein": "BUNV N protein R94A (natural protein, Bunyamwera virus, UniProt P16495 1-233, looked up, nucleocapsid (N) protein of Bunyamwera virus, from modified plasmid pET-BUN-N, single alanine substitution; monomers and tetramers equally abundant) MIELEFHDVAANTSSTFDPEVAYANFKRVHTTGLSYDHIRIFYIKGREIKTSLAKRSEWEVTLNLGGWKITVYNTNFPGNRNNPVPDDGLTLHALSGFLARYLLEKMLKVSEPEKLIIKSKIINPLAEKNGITWNDGEEVYLSFFPGSEMFLGTFRFYPLAIGIYKVQRKEMEPKYLEKTMRQRYMGLEAATWTVSKLTEVQSALTVVSSLGWKKTNVSAAARDFLAKFGINM", "values": [{"measurement": "stoichiometry N", "result": 4}]}
{"protein": "BUNV N protein K179A (natural protein, Bunyamwera virus, UniProt P16495 1-233, looked up, nucleocapsid (N) protein of Bunyamwera virus, from modified plasmid pET-BUN-N, single alanine substitution) MIELEFHDVAANTSSTFDPEVAYANFKRVHTTGLSYDHIRIFYIKGREIKTSLAKRSEWEVTLNLGGWKITVYNTNFPGNRNNPVPDDGLTLHRLSGFLARYLLEKMLKVSEPEKLIIKSKIINPLAEKNGITWNDGEEVYLSFFPGSEMFLGTFRFYPLAIGIYKVQRKEMEPKYLEATMRQRYMGLEAATWTVSKLTEVQSALTVVSSLGWKKTNVSAAARDFLAKFGINM", "values": [{"measurement": "binding result", "result": "binds"}]}
{"protein": "BUNV N protein K50A (natural protein, Bunyamwera virus, UniProt P16495 1-233, looked up, nucleocapsid (N) protein of Bunyamwera virus, from modified plasmid pET-BUN-N, single alanine substitution) MIELEFHDVAANTSSTFDPEVAYANFKRVHTTGLSYDHIRIFYIKGREIATSLAKRSEWEVTLNLGGWKITVYNTNFPGNRNNPVPDDGLTLHRLSGFLARYLLEKMLKVSEPEKLIIKSKIINPLAEKNGITWNDGEEVYLSFFPGSEMFLGTFRFYPLAIGIYKVQRKEMEPKYLEKTMRQRYMGLEAATWTVSKLTEVQSALTVVSSLGWKKTNVSAAARDFLAKFGINM", "values": [{"measurement": "binding result", "result": "binds"}]}
